# Reference: the nanobody polyreactivity screen of Harvey et al. (2022)
# Experiment: yeast display, Sf9 membrane polyspecificity reagent, FACS + sequencing; frameworks hold sequencing errors
# Outline: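 Synthetic nanobody libraries on Saccharomyces cerevisiae BJ5465 were galactose-induced for 36–48 hours, stained 1 hour at 4 °C with 10% biotinylated, detergent-solubilized Sf9 membrane reagent and enriched on streptavidin microbeads. FACS then separated cells into low and high (top ~1%) gates by anti-HA (expression) and streptavidin (reagent binding) fluorescence. Genes were colony-PCR amplified, MiSeq 2 × 250 sequenced and CDR-length filtered. A clone's polyreactivity label is that of its gate of origin.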
row,Sequence,polyreactivity (PSR sort gate)
1,QVQLVESGGGLVQAGGSLRLSCAASGIIFRYYAMGWYRQAPGKERELVAAITVNGGRTYYADSVKGRFTISRDNAKNTVYLQMNSLKPEDTAVYYCAAYPHRYRVTPYPSVVSLDNYWGQGTQVTVSS,low polyreactivity
2,QVQLQESGGLVQAGVSLRLSCAASGSISGRNVMGWYLQAPVKQREFVASITDGSSSNYADSVKGRFTISRDNAKNTVYLQMNSLKPTDTAVYYCAAYGLRPKSFGNWGGGTQVTVSS,low polyreactivity
3,QVQLVESGGGLVQAGGSLRLSCAASGFTFYTNTMGWYRQAPGKERELVAAISSGGSTYYADSVKGRFTISRDNAKNTVYLQMNRLKPEDTAVYYCNAYDYHDVADDYWGQGTQVTVSS,low polyreactivity
4,QFQLVESGGGLVQAGASLRLSCAASGSISKSYAMGWYRQAPGKERELVAAISWRGGSTYADSVKGRFTISRDNAKNTVYLQMNCLKPEDTAVYYCAATNYGTFWGGQSERYDYWGQGTQVTVSS,low polyreactivity
5,QVQLVESGGGLVQAGGSLRLSCAASGIIFRGNAMGWYRQAPGKERELVAAISKSGGRTYYADSVKGRFTISRDNAKNTVYLQMNSLKPEDTAVYYCAASYYAVGGYDYWGQGTQVTVSS,high polyreactivity
6,QVQLVESGGGLVQAGGSLSLSCAASGRTFKYYAMGWYRQAPGKERELVATITWSGTSTNYADSVKGRFTISRDNEKHTVYLQMNSLKPEDTAVYYCAARSKRRNYDYWGQGTQVTVSS,high polyreactivity
7,QVQLVESGGGLVQAGGSLRLSCAASGSTFVSYAMGWYRQAPGKERELVAAISFSDDSTYYADSVKGRFTISRDNAKNTVYFQMHSLKPEDTAVYYCAAASDSYVRVLEGFTFDYWGQGTQVTVSS,low polyreactivity
8,QVQLVESGGGLVQAGGSLRLSCAASGSTFYLYTMGWYRQAPGKERELVAASSINGGITYYADSVKGRFTISRDNAKNTVYFQMYSLKPEDTAVYYCAKSSGQTDVGSFYYRLDYWGQGTQVTVSS,low polyreactivity
9,QVQLVESGGGLVQAGGSHRLSCAASGSTFNLNAMGWYRQAPGKERELVAAIDSGGRTNYADSVKGRFTISRDNAKNTVYLQMNSLKPEDTAVYYCADDVYAYPGSWYDYWGQGTQVTVSS,low polyreactivity
10,QVQLVESGGGLVQAGGSLRLSCAASGSTFYYYAMGWYRQAPGKEREFVAAITWSGGSTYYADSVKGRFTISRDNAKNTVYLQMNSLKQEDTGVYYCAKDQRYYYYGGGDYWGQGTQLTVSS,low polyreactivity
11,QVQLVDSGGGLVQAGGSLRLSCAASGSTFFFNDLGWSRQAPGKESEFVAGISSSGGSTHYADSVKGRFTISRDKAKNTVYFQMNSLKPEDTAVYYCNTLRNWYYQFDFNYWGQGTQVTVSS,low polyreactivity
12,QVQLVESGAGLVQAGGSLRLSCAASGRTFYWYVMGWYRQAPGKERELVAAITQTGSSTYYADSVKGRFTISRDYAKNTVYLQMNSLKPEDTAVYYWAAEASSVPGYDYWGQGTQVTVSS,low polyreactivity
13,QVQLVESGGGLVQAGGSLRLSCAAYGSTFGGNARGWYIQAPGKERELVAVISKRGGSTYYADSVKGRFTISRDYEKNTVYLQINSLKPEDTAVYYCAATYSRYWSPTYDYWGQGTQVTVSS,high polyreactivity
14,QVQLVESGGGLVQAGGSLRLSCAASGRTFYYNGMGWYRQAPGKERELVAAITSGGTTSYADSVKGRFTISRDNAKNTVYLLMNCLKPEDTAVYYCNAECAPWGSAYGHDQYDYWGQGTQVTVSS,low polyreactivity
15,QVQLVESGGGLVQAGVSLRLSCAASGSTLVYYAMGWYRQAPGKERELVAAITRSGDNTYYADSVKGRFTISRDNAKNTVYLQMNSLKPEDTAVYYCAVKKRVYSGDYWGQGTQVTVSS,high polyreactivity
16,QVQLVESGGGLVQAGGSLRLSCAASGFIFGVNTMGWYRQAPGKERELVAAINSGGSTNYADSVKGRFTISRDNAKNTVYLLMNSLKPEDTAVYYCAVRHFWYRWGWYNYWGQGTEVTVSS,high polyreactivity
17,QVHLVESGGGFVQAGGSLRVSCAASRRIYNLNAMGWYRQAPGKERELVAAISKSGTRTYYADSVKGRFTISRDNAKNTVYLPMNSLKPEDTAVYSCAARRSSVTQSTTYPAVRQRYGYWGQGTQVTVSS,high polyreactivity
18,QGQLVESGGGLVQAGGSLRLSCAASGSIFPVYAMGWYRQAPGKEREFVARIRFSGGRTYYADSVQGRFTISRDNAKNTVYLQMNSLKPEDTAVYYCAKAQYSGRYGYWGQGTQVTVSS,high polyreactivity
19,QVQLVESGGGLVQAGGSLRLSCAASGSIFLYNTMGWYRQAPGKERELVAAITYSGGSTYYADSVKGRFTISRDYAKNTVYLQMNSLKPEDTAVDYCNARHYSAYYSWGQGTQVTVSS,high polyreactivity
20,QVQLVESGGGLVQAGGSLRLSCAASGITFTLYAMGWYRQAPGKERELVASISWSGGSTYYADSVKGRFTISRDNAKNTVYLQMNSLKPEDTAVYYCNAVYARKYYYSHGYDYWGQGTQVTVSS,high polyreactivity
21,QVQLVESGGGLVQAGGSLRLSCAASGIIFTVYAMGWYRQPPGTERELVAAITSSGGRTYYADSVKGRFTISRDNAKNTVYLQMNSLKPDDTAVYYCAARRPGYVRKDDYWGQGTQVTVSS,high polyreactivity
22,QVEHVDSGRGLVQAGGSLRLSCAASGSIIRSYAMGWYRQAPGKERELVAAISWRGGRTYYADSLKGRFTISRDNAKNTVYLQMNSLKPEDTAVYFCAARKRAQQGTRDHDYWGQGTQLTVSS,high polyreactivity

row,Sequence,polyreactivity (PSR sort gate)
1,QVQLLESGGGLVQAGGSLRLSCAASGSTLNVYGMGWYRQAPGQERELVAAINRDGITYADSVKGRCTISRDNAKNTVYLQMNSLKPEDTAVYYCAGDPYDNSVPGWRRNMDYWGQGTQVTVSS,low polyreactivity
2,QVQLVESGGGLVQAGGSLRLSCAASGLTFYVYAMGWYRQAPGKERELVAAINWSGGNTYYADSVKGRFTISRDNAKNTVYLQMNSLKPEDTAVYYCAAELYYPVGFDYWGQGTQVTVSS,high polyreactivity
3,QVQLVESGGGLVQAGGSLRLSCAASGLTFKWNTMGWYRQAPGKERELVAAISWRVVSTYYADSVKGRFTISRDNAKNTFYLQMNSLKQEDTAVYYDYWGQGTQVTVSS,low polyreactivity
4,QVQLVESGGGLVQAGGSLRLSCAASGRIFKTNAMGWYRQAPGKERELVAAITWSGTSTYYADSVKWRYTISRDNEKITVYLQMNSLKPEDTAVYYCDAKQYARKYGFWGQGTQVTVSS,high polyreactivity
5,QVQLVESGGGLVQAGGSLRLSCAASGFTFDYYAMGWYRQAPGKERELVAAITSGSITYYADSVKGRFTISRDNAKNTVYLQMNSLKPEDTAVYSCAAVGLVRYGYWGQGTQVTVSS,high polyreactivity
6,QVQLVESGGGLVQAGGSLRLSCAASGSTFSDYAMGWYRQATGKERELVAAISKRGGSTYYADSVKGRFTISRDNAKNTVFLQMNSQKPEDTAVYYCNKESLYREFDYWGQGTQVTVSS,low polyreactivity
7,QVQLVESGGGLVQAGGSLRLSCAASGSTFRYYTMGWYRQAPGKERELVADITIGGSTYYADSVKGRFTISRDNSKNSVYLQMYSLKPEDTAVYYCAARSTGGRIFATGVAYAYWGQGTQVTVSS,low polyreactivity
8,QLQLVESGRGLVQAGGSLRLSCAASGITFPGYAMGWYRQAPGKERELVAAIDWSGDGTYYADSVKGRFTISRENAKNTVYFQMNSLKPEDTAVFYCAKDNYPNHSTVLAVIYDNWGQGTQVTVSS,low polyreactivity
9,QVQLVESGGGLDQAGGSLRLSCAASGSTFGGNAMGWYRQAPGKERELVAAISGGDRTNYADSVKGRFTISRDNAKNSVYLQMNSLKPEDTAVYYCAADAGYWDLRSGIYKEDYWGQGTQVTVSS,low polyreactivity
10,QVQLVETGGGLDQAGGSLRLSCAASGRTSRYAMGWYRQAPGKEMELVAAISRNGRTTSYADSVKGRFTISRDNAKNTVYLQKNSLKPEDTAVDYCNAYSAFVPPTRGYYWGQGTQVTVTS,high polyreactivity
11,QVQLVESGGGLVQAGGSLRLRCAASGFTIWPYAMGWYRQAPGKERELVAGITRKGGSTYYADSVKGRFTISRDNAKNTVYLQMNSLKPEDTAVYYCNTKYAVEIDYWGQGTQVTVSS,low polyreactivity
12,QVQLQESGGGLVQAGGSLRLSCAASGYITYFVGMGWYRQPPGKEREFVASIADGSNTYYADSVKGRFTISRDNAKNTVYLQRNSLKPEDTAVYYCAVVDSWTYRFDYWGQGTQVTVSS,high polyreactivity
13,QVQLVESGGGLVQAGGSLRLSCAASGRISLRILWDGIDRRLGKKGSWLPLLTNTGSTNYADSVKGRFTISRDNAKNTVYLQMNSLKPEDTAVYDCNADPTGGSSYPAYFEYDYWGQGTQVTVSS,low polyreactivity
14,QVQLVESGGGLVQAGGSLRLSCAASGSTFYQYAAMGWYRQAPGKERELVAAISGRGTRTYYADSVKGRFTISRDNAKNTVYLQMNSLKPEDTAVYYCAAEVNIRQYGFDYWGQGTQVTVSS,high polyreactivity
15,QVQLVESGGGLVQAGGSLRLSFAASGSIFSYYPMGWYSQAPGKERELVAAISTSGGRTYYADSVKGRFTISRDNEKNTVYLQLYSLKPEDTPVYYCAAPVRWKNYDYWGQGTQVTVSS,high polyreactivity
16,QVQLVESGGGLVQAGGSLRLSCAASGRIFGVNAMGWYRQAPGKERELVAAIFSGGSTYYADSVKGRFTISRDNAKNTVYLQMNSLKPEDTAGYYCAARFARYDWSMYYWGQGTQVTVSS,low polyreactivity
17,QVQVVESGGGLVQAGGSLRLSCAASGRIFRANAMGGYRKAPGKERELVADISRSAGSTYYADSVKGRFTISRDNAKNTVYLQLNSLKPADTAVYYCAKRGYYSFDYWGQGTQVTVSS,high polyreactivity
18,QVQLVESGGGLVQAGGSHRLSCAASGRIFRRYAMGWYRQARGQERELDAGITGSGTSTYYADSVKGRFTISRDNAKNTVYLQMNSLKPEDTAVYYCAADRGRGYRYNYWGQGTQVTVSS,high polyreactivity
19,QVQLVESGGGFVQAGGSLRLSCAASGSTFPVYAMGWYRQAPGKERELVAAISRSGASTYYADSVKGRFTISRDNAKNTVYLQMNSLKPEDTAVYYCARGYQGRLKNEYWGQGTQVNVSS,low polyreactivity
20,HLQMQESGGGLVQAGGSLRLSCASSGSIFQATYMGWYRQAPGKEREFVASITYGSITNYADSVKGRFTIGRDNAKDTLYLQMNSLKPEDTAVYYCAVDRHYIPAFHYWGQGTQVTVSS,low polyreactivity
21,QVQLVESGGGLVQAGGSLRLSCAASGRIFARYAMGWYRQAPGKERELVAAITVSGDNTYYADSVKGRFTISRDNAKNTVYLQMNSLKPEDTAVYYCAVRAVLLFGFFEYDYWGQGTQVTVSS,low polyreactivity
